Test results: patent US9605073B2, “Modulation of activity of neurotrophins” (H. Lundbeck, priority 2002, dated 2017)
Where two headings read alike, the source gives them in different places.

Experiments:
[1] = molecular target: T1, proNGF binding to Sortilin (Homo sapiens, UniProt Q99523); assay: Inhibition of proNGF binding to immobilized Sortilin (BIAcore); conditions: prebound then coinjected, 51 fmol/mm^2 Sortilin
T1 construct: to 51 fmol/mm^2 purified Sortilin extracellular domain (lower panel); made in house; host or cells: Sortilin: stably transfected CHO cells; proNGF: E. coli
T1 sequence (Q99523 78-755 limits assumed): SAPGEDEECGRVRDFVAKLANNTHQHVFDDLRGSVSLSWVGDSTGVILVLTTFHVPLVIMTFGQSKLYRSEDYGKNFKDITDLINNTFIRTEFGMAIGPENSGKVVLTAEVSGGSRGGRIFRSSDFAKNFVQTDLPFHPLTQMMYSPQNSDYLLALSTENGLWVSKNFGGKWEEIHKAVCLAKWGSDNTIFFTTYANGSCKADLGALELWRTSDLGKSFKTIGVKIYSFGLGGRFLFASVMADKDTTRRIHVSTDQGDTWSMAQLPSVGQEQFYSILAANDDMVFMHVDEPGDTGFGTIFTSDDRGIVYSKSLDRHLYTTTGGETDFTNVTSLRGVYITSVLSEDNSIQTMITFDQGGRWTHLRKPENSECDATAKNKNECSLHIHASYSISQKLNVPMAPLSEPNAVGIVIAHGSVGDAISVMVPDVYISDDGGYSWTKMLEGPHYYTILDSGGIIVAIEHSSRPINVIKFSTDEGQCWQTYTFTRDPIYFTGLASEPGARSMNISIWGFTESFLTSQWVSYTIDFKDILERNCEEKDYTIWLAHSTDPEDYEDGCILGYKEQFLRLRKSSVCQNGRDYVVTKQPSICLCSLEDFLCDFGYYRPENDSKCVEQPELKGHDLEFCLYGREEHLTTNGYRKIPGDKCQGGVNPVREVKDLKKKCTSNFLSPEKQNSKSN
Procedure: FIG. 6: Inhibition of proNGF binding to immobilized Sortilin by RAP (receptor-associated protein), the propeptide of proNGF, and the Sortilin propeptide. The inhibitors were prebound to Sortilin followed by coinjection with 200 nM proNGF. […] Maximal proNGF binding is measured without preincubation with the respective inhibitors.

[2] = molecular target: T2, Sortilin extracellular domain (Homo sapiens, UniProt Q99523); assay: Surface plasmon resonance (BIAcore) binding to immobilized purified Sortilin extracellular domain
T2 construct: purified Sortilin extracellular domain (lower panel); made in house; host or cells: CHO cells (stably transfected)
T2 sequence (Q99523 78-755 limits assumed): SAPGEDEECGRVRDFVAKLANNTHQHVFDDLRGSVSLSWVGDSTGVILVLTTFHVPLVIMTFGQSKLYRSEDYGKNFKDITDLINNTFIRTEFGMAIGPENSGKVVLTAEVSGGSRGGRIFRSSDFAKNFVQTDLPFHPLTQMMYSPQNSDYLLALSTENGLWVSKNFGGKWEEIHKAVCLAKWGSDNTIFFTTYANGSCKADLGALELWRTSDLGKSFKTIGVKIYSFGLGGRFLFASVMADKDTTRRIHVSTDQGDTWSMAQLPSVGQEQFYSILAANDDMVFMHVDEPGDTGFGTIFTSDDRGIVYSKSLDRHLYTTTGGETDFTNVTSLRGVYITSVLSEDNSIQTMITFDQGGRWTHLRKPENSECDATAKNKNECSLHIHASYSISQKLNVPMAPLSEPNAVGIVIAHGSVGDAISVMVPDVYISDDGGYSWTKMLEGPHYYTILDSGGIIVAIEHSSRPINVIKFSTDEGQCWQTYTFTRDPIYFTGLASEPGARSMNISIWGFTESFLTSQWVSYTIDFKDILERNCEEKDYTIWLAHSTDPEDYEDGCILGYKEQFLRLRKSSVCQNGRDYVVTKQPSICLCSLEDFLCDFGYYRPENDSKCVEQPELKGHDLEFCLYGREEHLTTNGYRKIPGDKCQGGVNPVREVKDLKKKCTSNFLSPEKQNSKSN
Procedure: (§1) FIG. 2: Characterization of NGF binding to p75, TrkA, and Sortilin as measured by surface plasmon resonance analysis (BIAcore). Binding of 50-500 nM NGF was measured to 91.5 fmol/mm^2 immobilized p75-IgG-Fc chimeric protein (upper panel), to 66 fmol/mm^2 immobilized TrkA-IgG-Fc (middle panel), and to 51 fmol/mm^2 purified Sortilin extracellular domain (lower panel).
(§2) Mature murine NGF was from Austral Biologicals (San Ramon, Calif.), recombinant human p75 neurotrophin receptor/Fc and human TrkA/Fc chimeras were from R&D systems (Oxon, UK). Human Sortilin was produced in stably transfected CHO-cells and purified as described elsewhere (Munck Petersen et al, EMBO J. (1999) 18:595-604).
as §1, with “3:” for “2:”, “proNGF” for “NGF”, “25-500” for “50-500”
as §1, with “4:” for “2:”, “of” for “of NGF”, “binding of the proNGF propeptide” for “binding”, “25-500” for “50-500”, “propeptide” for “NGF”
FIG. 7: Characterization of proBDNF and BDNF binding to purified Sortilin as measured by surface plasmon resonance (BIAcore). Rat proBDNF was produced in 293 cells as described in Lee, R., Kermani, P., Teng, K. K. & Hempstead, B. L. Regulation of cell survival by secreted proneurotrophins. Science 294, 1945-1948 (2001). and purified from the conditioned medium. Mature recombinant human BDNF was from Promega (#G1491) and the pro-domain of human BDNF fused to GST (glutathione S-transferase) was produced in E. coli and purified by glutathione-sepharose affinity chromatography. Binding of 5-500 nM proBDNF (upper panel), pro-domain of proBDNF (a GST-fusion protein, middle panel) or BDNF (lower panel) was measured to 94 fmol/mm2 immobilized purified Sortilin extracellular domain. The experiment was carried out essentially as described for FIGS. 2-4.
(§3) All the data provided in FIG. 2-7 are obtained by surface plasmon resonance measurements (BIAcore analysis)

[3] = molecular target: T3, p75 neurotrophin receptor/Fc (Homo sapiens, UniProt P08138); assay: Surface plasmon resonance (BIAcore) binding to immobilized p75-IgG-Fc chimeric protein; conditions: 91.5 fmol/mm^2 immobilized p75-IgG-Fc; for Kd: BIAcore
T3 construct: purchased R&D systems (Oxon, UK)
T3 sequence (P08138 with tags, fused parts or gaps limits assumed): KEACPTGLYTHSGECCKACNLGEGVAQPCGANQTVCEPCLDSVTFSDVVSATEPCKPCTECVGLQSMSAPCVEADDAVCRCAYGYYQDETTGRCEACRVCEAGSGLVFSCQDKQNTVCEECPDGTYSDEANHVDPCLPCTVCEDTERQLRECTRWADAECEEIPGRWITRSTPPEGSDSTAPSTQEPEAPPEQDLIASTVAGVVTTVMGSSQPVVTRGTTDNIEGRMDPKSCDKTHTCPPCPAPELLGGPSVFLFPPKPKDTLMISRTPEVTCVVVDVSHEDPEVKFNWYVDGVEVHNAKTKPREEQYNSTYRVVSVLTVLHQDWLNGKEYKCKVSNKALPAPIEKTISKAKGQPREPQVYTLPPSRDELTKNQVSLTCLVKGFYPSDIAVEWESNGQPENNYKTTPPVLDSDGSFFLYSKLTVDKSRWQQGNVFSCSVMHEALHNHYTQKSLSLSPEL
Procedure: as §1, §2
as §1, with “3:” for “2:”, “proNGF” for “NGF”, “25-500” for “50-500”
as §1, with “4:” for “2:”, “of” for “of NGF”, “binding of the proNGF propeptide” for “binding”, “25-500” for “50-500”, “propeptide” for “NGF”
as §3

TrkA/Fc = assay: Surface plasmon resonance (BIAcore) binding to immobilized TrkA-IgG-Fc; design: species or system human; conditions: 66 fmol/mm^2 immobilized TrkA-IgG-Fc; for Kd: BIAcore
Procedure: as §1, §2
as §1, with “3:” for “2:”, “proNGF” for “NGF”, “25-500” for “50-500”
as §1, with “4:” for “2:”, “of” for “of NGF”, “binding of the proNGF propeptide” for “binding”, “25-500” for “50-500”, “propeptide” for “NGF”
as §3

[4] = 5-500 nM ligand, 94 fmol/mm2 immobilized purified Sortilin extracellular domain, read-out: Kd for ligand binding to Sortilin
[5] = 51 fmol/mm^2 purified Sortilin extracellular domain, BIAcore, read-out: Kd for binding to Sortilin

“Sortilin propeptide: Propeptide of Sortilin; SEQ ID NO: 1 amino acid residue 34-77, binds the processed receptor (QDRLDAPPPPAAPLPRWSGPIGVSWGLRAAAAGGAFPRGGRWRR; listed as Homo sapiens)” was tested, and the “inhibition of binding of 200 nM proNGF to immobilized Sortilin” value (“inhibition of binding of 200 nM proNGF” for short) ([1]; inhibitor 5 μM) was about 65%.

Molecule “mature BDNF: Mature recombinant human BDNF from Promega (#G1491)” has a Kd [2, 4] of about 40 nM and a Kd ([2]; other preparations of mature BDNF, read-out: Kd for ligand binding to Sortilin) of 10 nM.

“proNGF: Human recombinant proNGF produced and purified in E. coli” gave a Kd [3] of about 12 nM, a Kd (TrkA/Fc) of about 15 nM and a Kd [2, 5] of about 5 nM.

B1: proNGF propeptide: Human NGF-propeptide expressed in E. Coli; SEQ ID NO: 6 amino acid residue 19-121 (protein, listed as Homo sapiens)
chain: EPHSESNVPAGHTIPQVHWTKLQHSLDTALRRARSAPAAAIAARVAGQTRNITVDPRLFKKRRLRSPRVLFSTQPPREAADTQDLDFEVGGAAPFNRTHRSKR
B1 was tested, and the “binding to p75” value ([3]; 25-500 nM propeptide) was “no detectable binding”, the “binding to TrkA” value (TrkA/Fc; 25-500 nM propeptide) was “no detectable binding” and the Kd [2, 5] was about 87 nM. The “inhibition of binding of 200 nM proNGF” value ([1]; inhibitor 5 μM) was about 85%.

B2: proBDNF: Rat proBDNF produced in 293 cells and purified from the conditioned medium (protein)
chain: APMKEANVHGQGNLAYPAVRTHGTLESVNGPRAGSRGLTTTSLADTFEHVIEELLDEDQKVRPNEENHKDADLYTSRVMLSSQVPLEPPLLFLLEEYKNYLDAANMSMRVRRHSDPARRGELSVCDSISEWVTAADKKTAVDMSGGTVTVLEKVPVSKGQLKQYFYETKCNPMGYTKEGCRGIDKRHWNSQCRTTQSYVRALTMDSKKRIGWRFIRIDTSCVCTLTIKRGR
With B2 the Kd [2, 4] was about 3 nM.

B3: GST-pro-domain of proBDNF: Pro-domain of human BDNF fused to GST, produced in E. coli (protein)
chain: APMKEANIRGQGGLAYPGVRTHGTLESVNGPKAGSGLTSLADTFEHVIEELLDEDQKVRPNEENNKDADLYTSRVMLSSQVPLEPPLLFLLEEYKNYLDAANMSMRVRR
modifications: left off: a dimerising Fc or GST
notes: Pro-domain of human BDNF fused to GST, produced in E. coli
B3 was tested, and the Kd [2, 4] was about 58 nM.

B4: RAP: Receptor-associated protein, cellular protein of about 300 amino acids, SEQ ID NO: 12 (protein, listed as Homo sapiens)
chain: MAPRRVRSFLRGLPALLLLLLFLGPWPAASHGGKYSREKNQPKPSPKRESGEEFRMEKLNQLWEKAQRLHLPPVRLAELHADLKIQERDELAWKKLKLDGLDEDGEKEARLIRNLNVILAKYGLDGKKDARQVTSNSLSGTQEDGLDDPRLEKLWHKAKTSGKFSGEELDKLWREFLHHKEKVHEYNVLLETLSRTEEIHENVISPSDLSDIKGSVLHSRHTELKEKLRSINQGLDRLRRVSHQGYSTEAEFEEPRVIDLWDLAQSANLTDKELEAFREELKHFEAKIEKHNHYQKQLEIAHEKLRHAESVGDGERVSRSREKHALLEGRTKELGYTVKKHLQDLSGRISRARHNEL
For B4, the “inhibition of binding of 200 nM proNGF” value ([1]; inhibitor 10 μM) was about 65%.

B5: NGF: Mature murine NGF from Austral Biologicals (protein)
chain: SSTHPVFHMGEFSVCDSVSVWVGDKTTATDIKGKEVTVLAEVNINNSVFRQYFFETKCRASNPVESGCRGIDSKHWNSYCTTTHTFVKALTTDEKQAAWRFIRIDTACVCVLSRKATRRG
B5 was tested, and the Kd [3] was about 1 nM, the Kd (TrkA/Fc) was about 2 nM and the Kd [2, 5] was about 87 nM.
